The text below walks through data of patent US20220242974A1 (QURE BIOTECHNOLOGY SHANGHAI, published 2022).

To fix the notation:
B1: QP1128 nanobody (VHH)
VHH: QVQLVESGGGSVQSGGSLRLSCAASGYTASAYYMAWFRQNSRKQREGVAAINRDGDTKYADSVKGRFTISRDDAKNTLYLQMNSLKPEDTAVYYCAASDWSRLYKIYWLDDNYYVRWGQGTQVTVSS
notes: as m59
B2: QP1127 nanobody (VHH)
VHH: QVQLVESGGGSVQSGGSLTLSCAISGYAYATYSMAWFRQAHGKEREGVAAINSDGHTTYVDSVKGRFTISRDNTNKNSYTLTLTMNNLNPEDTAMYYCAATSQLGFWAQKLWEAIRDGTWSPSTTDFGFWGRGTQVTVSS
notes: as m59
B3: QP1124 nanobody (VHH)
VHH: QVQLVESGGGLVQPGGSLRLSCTAPGFTSNTCAMGWYRQAAGMQREWVSSISKYGITTYANSVKGRFTISKDKAEDTVYLQMNNLKPEDTAMYVCKTFSCRNRGGAYLADAWGQGTQVTVSS
notes: as m59
B4: QP1125 nanobody (VHH)
VHH: QVQLVESGGGLVQPGGSLRLSCTAPGFTDKTCAMAWYRQVAGIEREWVSSISTLGTTNYASSVKGRFTISKDNAKDTVYLQMNNLKPEDTAMYVCKTFSCRNRGGSYLPDTWGQGTQVTVSS
notes: as m59

The target in this assay is PD-L1-his fusion protein (Homo sapiens (Human), UniProt Q9NZQ7 19-238). As to the kind of experiment: ELISA, PD-L1-his coated, culture supernatant of the clone. (In general: An ELISA detects its analyte on a solid surface through an enzyme-linked reagent.)
Chain of PD-L1-his fusion protein (Q9NZQ7 other isoform, or with tags, fused parts or gaps limits assumed): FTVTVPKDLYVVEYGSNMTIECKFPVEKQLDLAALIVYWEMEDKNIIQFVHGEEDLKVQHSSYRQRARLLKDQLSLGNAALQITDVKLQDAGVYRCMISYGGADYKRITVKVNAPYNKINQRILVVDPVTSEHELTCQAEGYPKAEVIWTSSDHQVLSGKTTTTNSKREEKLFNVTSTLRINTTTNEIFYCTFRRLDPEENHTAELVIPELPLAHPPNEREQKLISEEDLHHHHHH
As to B1, the binding result is listed as “binds”. The result for B2 reads “binds”; that for B3, “binds”; that for B4, “binds”.
